The target of data set [1] is T1, KlIxr1 (Kluyveromyces lactis, UniProt Q6CMQ4 1-464).
T1 sequence: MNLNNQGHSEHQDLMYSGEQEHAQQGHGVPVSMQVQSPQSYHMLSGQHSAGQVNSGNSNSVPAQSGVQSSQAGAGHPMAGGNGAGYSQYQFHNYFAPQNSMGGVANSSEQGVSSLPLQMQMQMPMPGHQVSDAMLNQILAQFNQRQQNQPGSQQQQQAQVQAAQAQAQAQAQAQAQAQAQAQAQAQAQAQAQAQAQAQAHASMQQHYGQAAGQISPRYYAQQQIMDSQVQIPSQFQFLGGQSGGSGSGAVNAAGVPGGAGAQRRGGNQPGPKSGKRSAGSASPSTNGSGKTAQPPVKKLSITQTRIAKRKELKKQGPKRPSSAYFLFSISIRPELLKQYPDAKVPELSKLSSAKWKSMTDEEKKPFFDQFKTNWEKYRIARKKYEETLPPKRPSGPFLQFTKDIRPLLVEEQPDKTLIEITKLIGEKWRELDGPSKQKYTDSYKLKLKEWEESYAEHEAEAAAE
Briefly: fluorescence anisotropy; 100 nM DNA; FA: 10 mM Tris-HCl pH 8.0, 100 mM KCl, 2 mM DTT, 1 mM EDTA, 500 ug/mL BSA, 25 C, 100 nM DNA; EMSA: 4 C 30 min, 500 nM DNA, 1 ug protein, 1 ug calf thymus DNA, buffer by reference. The note with it: protein: recombinant, tags: N-terminal 6xHis, blunt. Background: In fluorescence polarisation assays a small probe gives low polarisation when free and higher when bound to something large.

In data set [2] the target is T1, KlIxr1. The data set can be described thus: EMSA; calf thymus DNA carrier; two retarded bands; FA: 10 mM Tris-HCl pH 8.0, 100 mM KCl, 2 mM DTT, 1 mM EDTA, 500 ug/mL BSA, 25 C, 100 nM DNA; EMSA: 4 C 30 min, 500 nM DNA, 1 ug protein, 1 ug calf thymus DNA, buffer by reference. Conditions: protein: recombinant; tags: N-terminal 6xHis; label: 5'-FAM on forward strand (AJVV009f*); blunt. A general note: In EMSA bound probe runs differently from free probe, usually more slowly.

The Kd is the equilibrium constant for the complex coming apart.

B1: KlYCF1 promoter (dsDNA)
DNA 1: TTAATTGCAATTGTTACTGTTGATTTTAAA
DNA 2: TTTAAAATCAACAGTAACAATTGCAATTAA
Take B1: the Kd in data set [1] (label: 5'-FAM on forward strand (AJVV029f*)) was determined as 105 ± 18.9 nM.

B2: HEM13B (dsDNA)
DNA 1: TGGCCCAGCCTCTATTTCTCTCGTACCGGT
DNA 2: ACCGGTACGAGAGAAATAGAGGCTGGGCCA
Regarding B2, the dissociation constant Kd in data set [1] (label: 5'-FAM on forward strand (AJVV050f*)) was 155 ± 38.6 nM.

B3: HEM13A (dsDNA)
DNA 1: ATCTTGAATGTATGTTGGTTCAGCCTCTCC
DNA 2: GGAGAGGCTGAACCAACATACATTCAAGAT
Turning to B3, in data set [1] (label: 5'-FAM on forward strand (AJVV045f*)), the Kd turned out to be 15.6 ± 4.27 nM.

B4: KlHEM13 promoter 40-mer (both sites) (dsDNA)
DNA 1: ATCTTGAATGTATGTTGGTTCAGCCTCTATTTCTCTCGTA
DNA 2: TACGAGAGAAATAGAGGCTGAACCAACATACATTCAAGAT
As to B4, the binding result in data set [2] is given as “binds”.

(Values after publication PMC8465852, “The HMGB Protein KlIxr1, a DNA Binding Regulator of Kluyveromyces lactis Gene Expression Involved in Oxidative Metabolism, Growth, and dNTP Synthesis”.)
